{"source": "paper PMC5381946", "about": "(PLoS Pathogens, 2017)", "test_system": "c-Jun;c-Fos (;)", "experiment": "EMSA", "details": "EMSA: 10 mM Tris-HCl pH 7.5, 50 mM NaCl, 5 mM MgCl2, 20 min at 37 C, then 20 min with DNA, 5% native TBE-PAGE at 4 C", "data": [{"substance": "AP-1 oligonucleotide", "values": [{"measurement": "IC50", "setting": "reduced APE1 + inhibitor C10 (IC50 of the compound, not of DNA)", "result": 17, "unit": "µM"}, {"measurement": "IC50", "setting": "reduced APE1 + inhibitor E3330 (IC50 of the compound, not of DNA)", "result": 36, "unit": "µM"}]}]}
